In publication PMC3232166, “Seleno-detergent MAD phasing of leukotriene C4 synthase in complex with dodecyl-β-D-selenomaltoside” (Acta Crystallographica Section F, 2011):

Target: the molecule itself
Experiment: crystal structure; LTC4S with SeDDM and GSH, sitting-drop vapour diffusion at 293 K, 0.1 M MES-NaOH pH 6.5, 1.6 M ammonium sulfate, 0.4 M MgCl2; space group F23, Se MAD phasing, refined at 3.2 A

B1: Human leukotriene C4 synthase (enzyme)
chain: MKDEVALLAAVTLLGVLLQAYFSLQVISARRAFRVSPPLTTGPPEFERVYRAQVNCSEYFPLFLATLWVAGIFFHEGAAALCGLVYLFARLRYFQGYARSAQLRLAPLYASARALWLLVALAALGLLAHFLPAALRAALLGRLRTLLPWA
notes: Leukotriene C4 synthase, human; 17 kDa monomer; construct as described previously (Ago et al., 2007; Saino et al., 2011); also called LTC4S
For B1, the “stoichiometry N” value was 3.
